We go through one molecule from publication PMC9984183 (Science Advances, 2023).

For this experiment, the target named is human secretory pathway Ca2+/Mn2+ ATPase 1, isoform 1a (SPCA1a), PA-tagged (human, UniProt P98194). As to the kind of experiment: SEC.
human secretory pathway Ca2+/Mn2+ ATPase 1, isoform 1a (SPCA1a), PA-tagged, sequence (P98194 whole entry, canonical isoform): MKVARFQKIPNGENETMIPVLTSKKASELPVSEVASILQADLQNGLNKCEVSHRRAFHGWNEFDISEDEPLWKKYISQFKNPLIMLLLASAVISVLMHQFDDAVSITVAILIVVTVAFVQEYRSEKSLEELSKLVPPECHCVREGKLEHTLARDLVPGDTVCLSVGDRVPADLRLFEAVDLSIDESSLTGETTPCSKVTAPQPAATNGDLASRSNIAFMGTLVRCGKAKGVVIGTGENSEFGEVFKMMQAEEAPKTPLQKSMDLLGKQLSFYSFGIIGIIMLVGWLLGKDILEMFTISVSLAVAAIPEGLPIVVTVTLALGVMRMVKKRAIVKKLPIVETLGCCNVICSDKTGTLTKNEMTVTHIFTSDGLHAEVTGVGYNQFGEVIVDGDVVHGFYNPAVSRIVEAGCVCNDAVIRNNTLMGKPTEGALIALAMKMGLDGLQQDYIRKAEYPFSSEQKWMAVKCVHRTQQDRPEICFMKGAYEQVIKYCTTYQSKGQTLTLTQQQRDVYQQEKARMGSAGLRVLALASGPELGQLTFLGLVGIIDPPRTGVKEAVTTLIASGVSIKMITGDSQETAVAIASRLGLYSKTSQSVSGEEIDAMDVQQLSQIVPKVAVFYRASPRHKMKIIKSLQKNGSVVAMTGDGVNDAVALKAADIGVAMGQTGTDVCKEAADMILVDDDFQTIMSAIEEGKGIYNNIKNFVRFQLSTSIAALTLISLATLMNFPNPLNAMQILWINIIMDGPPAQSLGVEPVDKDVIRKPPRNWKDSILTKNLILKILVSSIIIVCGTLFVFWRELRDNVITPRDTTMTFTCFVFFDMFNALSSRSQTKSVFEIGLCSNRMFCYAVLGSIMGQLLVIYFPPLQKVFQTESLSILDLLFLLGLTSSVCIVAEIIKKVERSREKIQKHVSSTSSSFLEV

B1: nanobody 14 (Nb14), recombinant (VHH)
VHH: QVQLQESGGGLVQAGGSLRLSCAASGSIFGADWMGWYRQAPGKEREFVAGIGHGASTYYADSVKGRFTISRDNAKNTVYLQMNSLKPEDTAVYYCAVQYTQGWSGQYRSYDSLLYWGQGTQVTVSS
Regarding B1, the binding result is “binds”.
